The source of these data is patent US20260015399A1 (Boehringer Ingelheim, published 2026).

T1: human NPY2 receptor (human, UniProt P49146 1-381)
T1 construct: whole, on cells; also called hNPY2-R; hNPY2R
T1 sequence (looked up): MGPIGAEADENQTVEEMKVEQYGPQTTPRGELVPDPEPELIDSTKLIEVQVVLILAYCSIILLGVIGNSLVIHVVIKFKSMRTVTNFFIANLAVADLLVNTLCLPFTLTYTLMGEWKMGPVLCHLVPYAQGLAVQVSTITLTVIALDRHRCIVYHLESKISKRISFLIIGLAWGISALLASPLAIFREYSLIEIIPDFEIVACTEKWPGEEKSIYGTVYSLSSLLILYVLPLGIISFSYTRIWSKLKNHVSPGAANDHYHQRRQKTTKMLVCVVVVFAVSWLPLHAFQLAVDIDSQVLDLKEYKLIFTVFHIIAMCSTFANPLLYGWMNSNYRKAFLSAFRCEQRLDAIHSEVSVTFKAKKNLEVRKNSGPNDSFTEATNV

B1: Compound 88 (peptide)
peptide: Isovaleryl-APEK([Ahx-γGlu-C18 diacid])PEEDATPEELQRQYVSLRHYYNWLTRQRY-NH2
SMILES: CC(C)CC(=O)N[C@@H](C)C(=O)N1CCC[C@H]1C(=O)N[C@@H](CCC(=O)O)C(=O)N[C@@H](CCCCNC(=O)CCCCCNC(=O)CC[C@H](NC(=O)CCCCCCCCCCCCCCCCC(=O)O)C(=O)O)C(=O)N1CCC[C@H]1C(=O)N[C@@H](CCC(=O)O)C(=O)N[C@@H](CCC(=O)O)C(=O)N[C@@H](CC(=O)O)C(=O)N[C@@H](C)C(=O)N[C@H](C(=O)N1CCC[C@H]1C(=O)N[C@@H](CCC(=O)O)C(=O)N[C@@H](CCC(=O)O)C(=O)N[C@@H](CC(C)C)C(=O)N[C@@H](CCC(N)=O)C(=O)N[C@@H](CCCNC(=N)N)C(=O)N[C@@H](CCC(N)=O)C(=O)N[C@@H](Cc1ccc(O)cc1)C(=O)N[C@H](C(=O)N[C@@H](CO)C(=O)N[C@@H](CC(C)C)C(=O)N[C@@H](CCCNC(=N)N)C(=O)N[C@@H](Cc1c[nH]cn1)C(=O)N[C@@H](Cc1ccc(O)cc1)C(=O)N[C@@H](Cc1ccc(O)cc1)C(=O)N[C@@H](CC(N)=O)C(=O)N[C@@H](Cc1c[nH]c2ccccc12)C(=O)N[C@@H](CC(C)C)C(=O)N[C@H](C(=O)N[C@@H](CCCNC(=N)N)C(=O)N[C@@H](CCC(N)=O)C(=O)N[C@@H](CCCNC(=N)N)C(=O)N[C@@H](Cc1ccc(O)cc1)C(N)=O)[C@@H](C)O)C(C)C)[C@@H](C)O
B2: Compound 94 (peptide)
peptide: Isovaleryl-APAK([Ahx-γGlu-C18 diacid])PEADASPEELQRYYVELRHYYNWLTRQRY-NH2
SMILES: CC(C)CC(=O)N[C@@H](C)C(=O)N1CCC[C@H]1C(=O)N[C@@H](C)C(=O)N[C@@H](CCCCNC(=O)CCCCCNC(=O)CC[C@H](NC(=O)CCCCCCCCCCCCCCCCC(=O)O)C(=O)O)C(=O)N1CCC[C@H]1C(=O)N[C@@H](CCC(=O)O)C(=O)N[C@@H](C)C(=O)N[C@@H](CC(=O)O)C(=O)N[C@@H](C)C(=O)N[C@@H](CO)C(=O)N1CCC[C@H]1C(=O)N[C@@H](CCC(=O)O)C(=O)N[C@@H](CCC(=O)O)C(=O)N[C@@H](CC(C)C)C(=O)N[C@@H](CCC(N)=O)C(=O)N[C@@H](CCCNC(=N)N)C(=O)N[C@@H](Cc1ccc(O)cc1)C(=O)N[C@@H](Cc1ccc(O)cc1)C(=O)N[C@H](C(=O)N[C@@H](CCC(=O)O)C(=O)N[C@@H](CC(C)C)C(=O)N[C@@H](CCCNC(=N)N)C(=O)N[C@@H](Cc1c[nH]cn1)C(=O)N[C@@H](Cc1ccc(O)cc1)C(=O)N[C@@H](Cc1ccc(O)cc1)C(=O)N[C@@H](CC(N)=O)C(=O)N[C@@H](Cc1c[nH]c2ccccc12)C(=O)N[C@@H](CC(C)C)C(=O)N[C@H](C(=O)N[C@@H](CCCNC(=N)N)C(=O)N[C@@H](CCC(N)=O)C(=O)N[C@@H](CCCNC(=N)N)C(=O)N[C@@H](Cc1ccc(O)cc1)C(N)=O)[C@@H](C)O)C(C)C
B3: Compound 93 (peptide)
peptide: Isovaleryl-APEK([Ahx-γGlu-C18 diacid])PEEDASPEEIQRYYVQLRHYYNWLTRQRY-NH2
SMILES: CC[C@H](C)[C@H](NC(=O)[C@H](CCC(=O)O)NC(=O)[C@H](CCC(=O)O)NC(=O)[C@@H]1CCCN1C(=O)[C@H](CO)NC(=O)[C@H](C)NC(=O)[C@H](CC(=O)O)NC(=O)[C@H](CCC(=O)O)NC(=O)[C@H](CCC(=O)O)NC(=O)[C@@H]1CCCN1C(=O)[C@H](CCCCNC(=O)CCCCCNC(=O)CC[C@H](NC(=O)CCCCCCCCCCCCCCCCC(=O)O)C(=O)O)NC(=O)[C@H](CCC(=O)O)NC(=O)[C@@H]1CCCN1C(=O)[C@H](C)NC(=O)CC(C)C)C(=O)N[C@@H](CCC(N)=O)C(=O)N[C@@H](CCCNC(=N)N)C(=O)N[C@@H](Cc1ccc(O)cc1)C(=O)N[C@@H](Cc1ccc(O)cc1)C(=O)N[C@H](C(=O)N[C@@H](CCC(N)=O)C(=O)N[C@@H](CC(C)C)C(=O)N[C@@H](CCCNC(=N)N)C(=O)N[C@@H](Cc1c[nH]cn1)C(=O)N[C@@H](Cc1ccc(O)cc1)C(=O)N[C@@H](Cc1ccc(O)cc1)C(=O)N[C@@H](CC(N)=O)C(=O)N[C@@H](Cc1c[nH]c2ccccc12)C(=O)N[C@@H](CC(C)C)C(=O)N[C@H](C(=O)N[C@@H](CCCNC(=N)N)C(=O)N[C@@H](CCC(N)=O)C(=O)N[C@@H](CCCNC(=N)N)C(=O)N[C@@H](Cc1ccc(O)cc1)C(N)=O)[C@@H](C)O)C(C)C
B4: Compound 95 (peptide)
peptide: Isovaleryl-APEK([Ahx-γGlu-C18 diacid])PEEDATPEELQAYYVSLRHYYNWLTRQRY-NH2
SMILES: CC(C)CC(=O)N[C@@H](C)C(=O)N1CCC[C@H]1C(=O)N[C@@H](CCC(=O)O)C(=O)N[C@@H](CCCCNC(=O)CCCCCNC(=O)CC[C@H](NC(=O)CCCCCCCCCCCCCCCCC(=O)O)C(=O)O)C(=O)N1CCC[C@H]1C(=O)N[C@@H](CCC(=O)O)C(=O)N[C@@H](CCC(=O)O)C(=O)N[C@@H](CC(=O)O)C(=O)N[C@@H](C)C(=O)N[C@H](C(=O)N1CCC[C@H]1C(=O)N[C@@H](CCC(=O)O)C(=O)N[C@@H](CCC(=O)O)C(=O)N[C@@H](CC(C)C)C(=O)N[C@@H](CCC(N)=O)C(=O)N[C@@H](C)C(=O)N[C@@H](Cc1ccc(O)cc1)C(=O)N[C@@H](Cc1ccc(O)cc1)C(=O)N[C@H](C(=O)N[C@@H](CO)C(=O)N[C@@H](CC(C)C)C(=O)N[C@@H](CCCNC(=N)N)C(=O)N[C@@H](Cc1c[nH]cn1)C(=O)N[C@@H](Cc1ccc(O)cc1)C(=O)N[C@@H](Cc1ccc(O)cc1)C(=O)N[C@@H](CC(N)=O)C(=O)N[C@@H](Cc1c[nH]c2ccccc12)C(=O)N[C@@H](CC(C)C)C(=O)N[C@H](C(=O)N[C@@H](CCCNC(=N)N)C(=O)N[C@@H](CCC(N)=O)C(=O)N[C@@H](CCCNC(=N)N)C(=O)N[C@@H](Cc1ccc(O)cc1)C(N)=O)[C@@H](C)O)C(C)C)[C@@H](C)O
B5: Compound 90 (peptide)
peptide: Isovaleryl-APEK([Ahx-γGlu-C18 diacid])PEEDATPEELQRYYVVLRHYYNWLTRQRY-NH2
SMILES: CC(C)CC(=O)N[C@@H](C)C(=O)N1CCC[C@H]1C(=O)N[C@@H](CCC(=O)O)C(=O)N[C@@H](CCCCNC(=O)CCCCCNC(=O)CC[C@H](NC(=O)CCCCCCCCCCCCCCCCC(=O)O)C(=O)O)C(=O)N1CCC[C@H]1C(=O)N[C@@H](CCC(=O)O)C(=O)N[C@@H](CCC(=O)O)C(=O)N[C@@H](CC(=O)O)C(=O)N[C@@H](C)C(=O)N[C@H](C(=O)N1CCC[C@H]1C(=O)N[C@@H](CCC(=O)O)C(=O)N[C@@H](CCC(=O)O)C(=O)N[C@@H](CC(C)C)C(=O)N[C@@H](CCC(N)=O)C(=O)N[C@@H](CCCNC(=N)N)C(=O)N[C@@H](Cc1ccc(O)cc1)C(=O)N[C@@H](Cc1ccc(O)cc1)C(=O)N[C@H](C(=O)N[C@H](C(=O)N[C@@H](CC(C)C)C(=O)N[C@@H](CCCNC(=N)N)C(=O)N[C@@H](Cc1c[nH]cn1)C(=O)N[C@@H](Cc1ccc(O)cc1)C(=O)N[C@@H](Cc1ccc(O)cc1)C(=O)N[C@@H](CC(N)=O)C(=O)N[C@@H](Cc1c[nH]c2ccccc12)C(=O)N[C@@H](CC(C)C)C(=O)N[C@H](C(=O)N[C@@H](CCCNC(=N)N)C(=O)N[C@@H](CCC(N)=O)C(=O)N[C@@H](CCCNC(=N)N)C(=O)N[C@@H](Cc1ccc(O)cc1)C(N)=O)[C@@H](C)O)C(C)C)C(C)C)[C@@H](C)O

As usually defined, the Ki is the equilibrium dissociation constant of an inhibitor or competing ligand from its target. The low end stands for a stronger hold on the target, the high end for a looser hold on the target.

*1 amine or outer side, *2 acyl side, *3 side chain or, on linkers, in order; H or OH if unused. Side-chain parts run from the residue outwards. The star is where a group is joined. C18 diacid = O=C(O)CCCCCCCCCCCCCCCCC(=O)*; γGlu = O=C(O)[C@H](CCC(=O)[*:2])N[*:1]; Isovaleryl = CC(C)CC(=O)*; Ahx = NCCCCCC(=O)O

This test has as its target T1, human NPY2 receptor. The test is described as follows: RLB: displacement of 125I-PYY(1-36) from hNPY2R membranes. (In general: Displacement assays read how much labelled ligand stays bound in the presence of the test substance.)
On to B1, for which affinity was put at a Ki of 16.3 nM.
Take B2: the affinity corresponds to a Ki of 0.93 nM.
For the molecule B3, the Ki came to 1.71 nM.
B4: the inhibition constant Ki worked out at 2.92 nM.
On to B5, for which affinity was put at a Ki of 8.71 nM.
